Reference: IntAct's records for PubMed 22493223

B1: Mitotic spindle assembly checkpoint protein MAD1 (Homo sapiens), Q9Y6D9 (parent)
chain: MEDLGENTMVLSTLRSLNNFISQRVEGGSGLDISTSAPGSLQMQYQQSMQLEERAEQIRSKSHLIQVEREKMQMELSHKRARVELERAASTSARNYEREVDRNQELLTRIRQLQEREAGAEEKMQEQLERNRQCQQNLDAASKRLREKEDSLAQAGETINALKGRISELQWSVMDQEMRVKRLESEKQELQEQLDLQHKKCQEANQKIQELQASQEARADHEQQIKDLEQKLSLQEQDAAIVKNMKSELVRLPRLERELKQLREESAHLREMRETNGLLQEELEGLQRKLGRQEKMQETLVGLELENERLLAKLQSWERLDQTMGLSIRTPEDLSRFVVELQQRELALKDKNSAVTSSARGLEKARQQLQEELRQVSGQLLEERKKRETHEALARRLQKRVLLLTKERDGMRAILGSYDSELTPAEYSPQLTRRMREAEDMVQKVHSHSAEMEAQLSQALEELGGQKQRADMLEMELKMLKSQSSSAEQSFLFSREEADTLRLKVEELEGERSRLEEEKRMLEAQLERRALQGDYDQSRTKVLHMSLNPTSVARQRLREDHSQLQAECERLRGLLRAMERGGTVPADLEAAAASLPSSKEVAELKKQVESAELKNQRLKEVFQTKIQEFRKACYTLTGYQIDITTENQYRLTSLYAEHPGDCLIFKATSPSGSKMQLLETEFSHTVGELIEVHLRRQDSIPAFLSSLTLELFSRQTVA

Variants of: B1
Conditions: with md2l1_human MAD2L1, Q13257
Chain of md2l1_human MAD2L1, Q13257 (Q13257 whole entry): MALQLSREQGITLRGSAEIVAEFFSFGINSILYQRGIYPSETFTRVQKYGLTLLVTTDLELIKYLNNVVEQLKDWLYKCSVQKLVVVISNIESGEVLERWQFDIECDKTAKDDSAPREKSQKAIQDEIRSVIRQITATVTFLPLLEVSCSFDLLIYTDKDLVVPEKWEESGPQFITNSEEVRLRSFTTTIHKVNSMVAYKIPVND

Variant | effect of a mutation on the interaction
K541A;V542A;L543A;H544A;M545A | disrupting interaction strength
